Laboratory results published in US20230295308A1, “ANTAGONISTIC BIPARATOPIC ANTIBODIES THAT SPECIFICALLY BIND FIBROBLAST GROWTH FACTOR RECEPTOR 2 AND METHODS OF USING SAME” (The Broad Institute, Inc., priority 2020, published 2023).
“Also recorded” adds a separate entry of the source. Blank lines part the entries; values can stand above or below the molecule they belong to.

Experiments:
[1] = test system: FGFR2 fusion-positive ICC; details: phase II trial; cited from earlier work
[2] = test system: FGFR2-fusion transformed BaF3 cells; test: viability assay of BaF3 cells expressing FGFR2 fusions (FIG. 2); format: cell-based
Source text: A table showing IC50 (μM) is also provided.
(§1) NIH3T3 cells transformed with FGFR2-BICC1, FGFR2-AHCYL1, and FGFR2-PHGDH fusions were also sensitive to BGJ398 treatment (FIG. 5).

[3] = test system: NIH3T3 cells transformed with FGFR2-BICC1, FGFR2-AHCYL1, and FGFR2-PHGDH fusions; test: growth of NIH3T3 cells transformed with FGFR2 fusions (FIG. 5); format: cell-based
Source text: as §1

[4] = test system: NIH3T3 cells overexpressing FGFR2-BICC1 fusion; test: NIH3T3 FGFR2-BICC1 cell confluency, Incucyte (FIGS. 19A-19E); format: cell-based; details: 60 hours, 0.013-1 μM
Experimental: FIGS. 19A-19E present graphs showing the ability of biparatopic antibodies to impact FGFR2-fusion driven cell growth in NIH3T3 cells molecularly engineered to overexpress FGFR2-BICC1 fusion. […] The nomenclature of the biparatopic antibodies is based on the designations and descriptions of the parental antibodies presented in FIG. 7B.
(§2) The impact of biparatopic antibodies on FGFR2-fusion driven cell growth was assessed in a cell-based assay using biparatopic antibodies that bind to the ECD of FGFR2 and generated as described supra (Example 4). As described herein, the biparatopic antibodies were added to cultures of cells (e.g., NIH3T3 cells or BaF3 cells) molecularly engineered to overexpress FGFR2 fusion.
For assays using NIH3T3 cells, (FIGS. 19A-19E), NIH3T3 cells overexpressing a FGFR2-BICC1 fusion construct were plated in 384 black well plates at a concentration of 1000 cells/well overnight. 6 parental antibodies and 13 biparatopic antibodies were added to each well in duplicates at various concentrations ranging from 1 μM to 0.013 μM (1 μM, 0.833 μM, 0.600 μM, 0.450 μM, 0.316 μM, 0.233 μM, 0.166 μM, 0.125 μM, 0.091 μM, 0.066 μM, 0.048 μM, 0.035 μM, 0.025 μM, 0.018 μM, and 0.013 μM). The cell confluency was measured using Incucyte at 60 hours post treatment, and the IC50 curves were generated using non-linear fit in PRISM 9 software.

[5] = molecular target: FGFR2b alpha IIIb antigen (UniProt P21802); test: SPR (Biacore), antibody immobilized, FGFR2b alpha IIIb in flow
[6] = molecular target: FGFR2b alpha IIIb antigen (UniProt P21802); test: SPR (Biacore), KD matrix by the two arms; unit M from FIG. 17B and paragraph 180; FIG. 17B prints 9.1E-10 for the same antibody
[7] = test system: BaF3 cells overexpressing FGFR2-PHGDH fusion; test: BaF3 FGFR2-PHGDH cell survival, CellTiter-Glo (FIGS. 18A-18D); format: cell-based; details: no IL3, no FGF, 5 days, 0.013-1 μM
Source text: FIGS. 18A-18D present graphs showing the ability of biparatopic antibodies to impact FGFR2-fusion driven cell growth in BaF3 cells molecularly engineered to overexpress FGFR2-PHGDH fusion. […] These biparatopic antibodies were also more efficient at inhibiting growth of BaF3 cells overexpressing the FGFR2-PHGDH fusion compared to their parental antibodies. The nomenclature of the biparatopic antibodies is based on the designations and descriptions of the parental antibodies presented in FIG. 7B.
as §2
In particular, for assays using BaF3 cells (FIGS. 18A-18D), BaF3 cells overexpressing empty vector control or FGFR2-PHGDH fusion construct were plated in the absence of IL3 and FGF in 384 black well plates at a concentration of 750 cells/well overnight. […] The cell survival was measured using CellTiter-Glo at 5 days post treatment and the IC50 curves were generated using non-linear fit in PRISM 9 software. […]

Molecule: CCN1CCN(c2ccc(Nc3cc(N(C)C(=O)Nc4c(Cl)c(OC)cc(OC)c4Cl)ncn3)cc2)CC1 [NVP-BGJ398]
- efficacy in patients with FGFR2 fusion-positive ICC [1]: encouraging efficacy
- sensitivity of FGFR2-fusion transformed BaF3 cells (viability) [2]: sensitive; also recorded: showed sensitivity
- sensitivity of NIH3T3 cells transformed with FGFR2 fusions [3]: sensitive

- Binding Stoichiometry [5]: 1.3
- Kd [5]: 0.91 nM
- Kd [6]: 0.82 nM
B1: Biparatopic antibody B/N12 (bispecific antibody, V domains shown)
VH 1: EVQLLESGGGLVQPGGSLRLSCAASGFTFSSYAMSWVRQAPGKGLEWVSAISGSGTSTYYADSVKGRFTISRDNSKNTLYLQMNSLRAEDTAVYYCARVRYNWNHGDWFDPWGQGTLVTVSS
VL 1: QSVLTQPPSASGTPGQRVTISCSGSSSNIGNNYVSWYQQLPGTAPKLLIYENYNRPAGVPDRFSGSKSGTSASLAISGLRSEDEADYYCSSWDDSLNYWVFGGGTKLTVLG
VH 2: QVQLVQSGAEVKKPGESLKISCKGSGYSFTNYYIHWVRQMPGKGLEWMGAIYPDNSDTTYSPSFQGQVTISADKSISTAYLQWSSLKASDTAMYYCARGADIWGQGTLVTVSS
VL 2: DIQMTQSPSSLSASVGDRVTITCRASQDIDPYLSNWYQQKPGKAPKLLIYDASNLQSGVPSRFSGSGSGTDFTLTISSLQPEDFATYYCQQTTSHPYTFGQGTKVEIK
- inhibition of growth of NIH3T3 cells overexpressing FGFR2-BICC1 compared to parental antibodies [4]: more efficient and potent; also recorded: more effective and potent
- inhibition of growth of BaF3 cells overexpressing FGFR2-PHGDH compared to control cells overexpressing empty vector [7]: more efficient and potent; also recorded: more effective and potent
